B1: PEX5 peptide 108-123 (Peroxisomal targeting signal 1 receptor), 16-mer library wild type / PEX14 Pex14 (PEX14 PEX14, residues 16-84) (parent)
chain 1: GVADLALSENWAQEFL
chain 2: TPGSENVLPREPLIATAVKFLQNSRVRQSPLATRRAFLKKKGLTDEEIDMAFQQSGTAADEPSSLGPAT
B2: SH3BP2 peptide 408-423 (SH3 domain-binding protein 2), 16-mer library wild type / TNKS ANK (TNKS 12 ANK repeats, residues 174-649) (parent)
chain 1: PQLPHLQRSPPDGQSF
chain 2: TGVPAVSGALRELLEACRNGDVSRVKRLVDAANVNAKDMAGRKSSPLHFAAGFGRKDVVEHLLQMGANVHARDDGGLIPLHNACSFGHAEVVSLLLCQGADPNARDNWNYTPLHEAAIKGKIDVCIVLLQHGADPNIRNTDGKSALDLADPSAKAVLTGEYKKDELLEAARSGNEEKLMALLTPLNVNCHASDGRKSTPLHLAAGYNRVRIVQLLLQHGADVHAKDKGGLVPLHNACSYGHYEVTELLLKHGACVNAMDLWQFTPLHEAASKNRVEVCSLLLSHGADPTLVNCHGKSAVDMAPTPELRERLTYEFKGHSLLQAAREADLAKVKKTLALEIINFKQPQSHETALHCAVASLHPKRKQVTELLLRKGANVNEKNKDFMTPLHVAAERAHNDVMEVLHKHGAKMNALDTLGQTALHRAALAGHLQTCRLLLSYGSDPSIISLQGFTAAQMGNEAVQQILSESTPIRTSD
B3: PAIP1 peptide 124-139 (Polyadenylate-binding protein-interacting protein 1), 16-mer library wild type / PABPC1 PABC (PABPC1 PABC domain, residues 544-623) (parent)
chain 1: LMSKLSVNAPEFYPSG
chain 2: PLTASMLASAPPQEQKQMLGERLFPLIQAMHPTLAGKITGMLLEIDNSELLHMLESPESLRSKVDEAVAVLQAHQAKEAA

Variants of: B1
Assay: proteomic peptide phage display deep mutational scan (ProP-PD DMS): M13 P8 16-mer library selected against immobilised GST-tagged bait for four days (rounds), NGS of the eluted pools per day and pseudo-replica
Conditions: with PEX14 Pex14 (PEX14 PEX14, residues 16-84); bait immobilised on MaxiSorp plates (10 µg), library pre-cleared on GST, 2 h binding at 4 °C, five washes; one round per day, days 1-4; value from days 2 and 3; scale: average fractional NGS count over selection days 2 and 3

Screen value of substitutions, site by site:
chain 1 Q13: P 0.000626; Y 0.00131; W 0.000116; G 0.000163; E 0.000434; T 0.000462; L 0.000475; R 0.000241; H 0.000362; F 0
chain 1 F15: Y 0; W 0.000382; H 0.00727; K 0; L 0.000134; I 0
chain 1 E9: S 0; Q 0; N 0.000239; V 0.000378; L 0.000321; M 0.000152; I 0; F 0.000305; R 0; G 0.000125; Y 9.07e-05; D 0.000711; T 9.07e-05
chain 1 N10: Y 0.00069; G 0; D 0; S 0.000139; T 0.000176; F 0.000356; V 0.000297; L 0.000191; K 0.000111; P 0.00066; M 6.63e-05; W 0.000211; I 0.000414
chain 1 V2: N 0; Y 0.00067; T 0; I 0; E 0.000749; K 0; Q 0.000476; R 0; W 0
chain 1 A6: L 0.000211; E 0; Q 0.000383; V 0; H 0.000488; F 0.000385; Y 0
chain 1 L16: F 0; N 0; K 0.000183; D 0; R 0.000857; V 0.00389; H 0.000215; P 0.000186; G 0.00105; E 0.00013; W 0.00162; I 0
chain 1 L7: S 0.00013; P 0.000675; H 0; N 0; G 0.000778; K 0.000262; Q 0; V 0.000339
chain 1 S8: K 0; A 0.000717; D 0; P 9.07e-05; Q 0; G 0.000241; E 0.000967; I 0.00069; W 9.4e-05; H 0.0106; Y 0.0012
chain 1 W11: Y 0.00018; F 0
chain 1 A12: T 0.000373; S 0.000254; D 0; P 0; I 0.000211; H 0.000439; R 0; G 0.000152; F 0.000389; V 0; W 6.63e-05
chain 1 E14: S 0.00161; P 0; D 0.000196; Q 0.00136; H 0.000765; T 0.000432; F 0.000333; I 0.000908; W 0.00347; V 0.000334; G 0.000243; L 0.000529; K 0.00049; Y 0.00013; R 0.00542; A 0.00268
chain 1 L5: V 0.00065; G 0; S 0.000191; N 0; Y 0.000821; D 0.000324; F 0; W 0.000435
chain 1 D4: P 0; T 0; I 9.56e-05; A 0.000207; W 0.000313; E 0.000293; V 0; N 0; Q 0.000734; L 0.00112; S 0.00106; K 0
chain 1 A3: S 0.000118; E 7.71e-05; F 0; P 0.000212; R 0; K 0.000328; D 0; W 7.47e-05; H 0.000109; Q 0.000248

Variants of: B2
Assay: as above
Conditions: with TNKS ANK (TNKS 12 ANK repeats, residues 174-649); bait immobilised on MaxiSorp plates (10 µg), library pre-cleared on GST, 2 h binding at 4 °C, five washes; one round per day, days 1-4; value from days 2 and 3; keep out of graded; scale: average fractional NGS count over selection days 2 and 3

Screen value of substitutions, site by site:
chain 1 S15: G 9.21e-05
chain 1 S9: G 7.17e-05; R 9.97e-05
chain 1 R8: H 0; S 8.91e-05; W 0; Y 0

Variants of: B3
Assay: as above
Conditions: with PABPC1 PABC (PABPC1 PABC domain, residues 544-623); bait immobilised on MaxiSorp plates (10 µg), library pre-cleared on GST, 2 h binding at 4 °C, five washes; one round per day, days 1-4; value from days 2 and 3; keep out of graded; scale: average fractional NGS count over selection days 2 and 3

Screen value, by site and new letter:
chain 1 M2: R 0.000185; D 9.64e-06; H 0.000247; F 1.57e-05; Y 0
chain 1 N8: Q 0.000156; H 0.000197; K 0; I 9.39e-05; V 0.000243
chain 1 S3: R 0; Y 0.00023
